Measurements: publication doi:10.1101/2024.02.06.579105
Blank lines part the entries; values can stand above or below the substance they belong to.

How the values were obtained:
Experiment in all cases: SEC
[1] = target: MalE-DmxA^GAF×2 (M. xanthus)
[2] = target: MalE-DmxA^R615A (M. xanthus)
[3] = target: MalE-DmxA^E626A (M. xanthus)
[4] = target: MalE-DmxA^WT (M. xanthus)

stoichiometry N [1]: 2
Substance: MalE-DmxA^GAF×2 (domain or fragment)

stoichiometry N [2]: 2
Substance: MalE-DmxA^R615A (domain or fragment)

stoichiometry N [3]: 2
Substance: MalE-DmxA^E626A (domain or fragment)

stoichiometry N [4]: 2
Substance: MalE-DmxA^WT (domain or fragment)
